Tests used:
[1] = biological target: Ag85 (antigen 85 complex proteins) on the surface of live Mycobacterium abscessus cells (M. abscessus (endogenous in CIP104536T cells)); test: single-cell force spectroscopy (AFM); single M. abscessus R cell on a polydopamine colloidal probe against Fn coupled to a gold surface; PBS; maximum force 250 pN, contact time 500 ms, approach and retraction 1 um/s
[2] = biological target: Ag85 (antigen 85 complex proteins) on the surface of live Mycobacterium abscessus cells (M. abscessus (endogenous in CIP104536T cells)); test: dynamic force spectroscopy (AFM single-molecule force spectroscopy at varied loading rate); Fn tip on live M. abscessus R cells; retraction speeds 0.5, 1, 2.5, 5 and 10 um/s; loading rates 100 to 100,000 pN/s; 13 cells; fit of the Friddle-Noy-de Yoreo model; Kd calculated from Feq and keff (7 pN/nm)
[3] = biological target: Ag85 (antigen 85 complex proteins) on the surface of live Mycobacterium abscessus cells (M. abscessus (endogenous in CIP104536T cells)); test: single-molecule force spectroscopy (AFM); Fn-functionalized gold-coated AFM tip on live M. abscessus R cells adhered to a hydrophobic Petri dish; PBS; maximum force 250 pN, contact time 500 ms, retraction 1 um/s

Substance: purified human plasma fibronectin (natural protein)
- adhesion force [1]: 77 pN
- adhesion frequency (fraction of adhesive force curves), without peptide [1]: 30%
- Kd [2]: 95 nM
- equilibrium force (Feq) [2]: 34 pN
- koff [2]: 33 s⁻¹
- adhesion (rupture) force [3]: 75 pN
- adhesion frequency (fraction of adhesive force curves), without peptide [3]: 30%

Source: article PMC7140604
